Assay [1] has as its target T1, HMMW micropeptide (recombinant, purified from Escherichia coli BL21) (human).
T1 construct: also called purified HMMW micropeptide; human HMMW micropeptide
T1 peptide: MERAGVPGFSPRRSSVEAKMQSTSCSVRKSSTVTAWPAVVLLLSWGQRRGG
The experiment in a line: indirect ELISA, HMMW micropeptide coated at 1 ug/ml, antibody dilution 1:100K. The protocol: (§1) The antigen coating concentration of the HMMW micropeptide was 1 μg/ml and 5% milk PBS-T was used for sealing. The dilution multiples of eight antibodies were: 1: 3.125 K/6.25 K/12.5 K/25 K/5O K/100 K. The primary antibodies were incubated at 37° C. for 1 h and the secondary antibodies were incubated at 37° C. for 45 min. A color developing solution was added, reaction was performed at 37° C. for 15 min, the reaction was terminated, and the value was read. It can be seen from Table 2 below that the titers of the eight antibodies all reached 1: 100 K, meeting the requirements for subsequent antigen detection.
For orientation: In an ELISA, binding on a coated surface is turned into a signal by an enzyme label.

Assay [2] deals with T1, HMMW micropeptide (recombinant, …). The experiment in a line: indirect ELISA, HMMW micropeptide coated at 1 ug/ml. As to the method: as §1
The target is the same in assay [3]. As to the kind of experiment: indirect ELISA, HMMW micropeptide coated at 1 ug/ml, antibody dilution 1:25K. The protocol:
as §1

Assay [4] shares this target. The experiment in a line: indirect ELISA, HMMW micropeptide coated at 1 ug/ml, antibody dilution 1:50K. As to the method: as §1
The target is the same in assay [5]. As to the kind of experiment: indirect ELISA, HMMW micropeptide coated at 1 ug/ml, antibody dilution 1:6.25K. The protocol: as §1
For assay [6] the target is unchanged. The experiment in a line: indirect ELISA, HMMW micropeptide coated at 1 ug/ml, antibody dilution 1:3.125K. As to the method: as §1
Assay [7] has the same target. As to the kind of experiment: indirect ELISA, HMMW micropeptide coated at 1 ug/ml, antibody dilution 1:12.5K. The protocol: as §1

A value given as a limit tells only on which side of the number the result lay.

B1: Anti-HMMW antibody-2 (antibody, V domains shown)
VH: EVKLEESGGGLVQPGGSMKVSCVGSGFTFSNYWMNWVRQSPEKGLEWVAEIRLKSNNYATHYAESVKGRFTISRDDSKRSVYLQMNNLRVEDTGIYYCTTEAVDYWGQGTSVTVSS
VL: DIVMTQAAFSNPVTLGTSASISCRSSKSLLHSNGITYLYWYLQKPGQSPQLLIYQMSNLASGVPDRFSSSGSGTDFTLRISRVEAEDVGVYYCAQNLELPTFGGGTKLEIKR
notes: Mouse monoclonal antibody from a BALB/c x SP2/0 hybridoma; also called anti-HMMW-2 antibody
As for B1, in assay [1], the “ELISA reading at antibody dilution 1:100K” value turned out to be 2.73. Also, in assay [2], the titer is ≥ 100000 dilution (1:x). The “ELISA reading at antibody dilution 1:25K” value in assay [3] amounted to 3.19. Also, in assay [4], the “ELISA reading at antibody dilution 1:50K” value was determined as 2.94. In assay [5], the “ELISA reading at antibody dilution 1:6.25K” value amounted to 3.35. In assay [6], the “ELISA reading at antibody dilution 1:3.125K” value stood at 3.33. For the same molecule, the “ELISA reading at antibody dilution 1:12.5K” value in assay [7] came to 3.23.

B2: Anti-HMMW antibody-6 (antibody, V domains shown)
VH: EVKLEESGGGLVQPGGSMKLSCVASGFTFSNYWMNWVRQSPEKGLEWVAEIRLKSNNYATHYAESVTGRFTISRDDSKSSVYLQMNNLRAEDTGIYYCTLEAVDYWGQGTSVTVSS
VL: DIVMTQAAFSNPVTLGTSASISCRSSKSLLHSDGITYLYWFLQKPGQSPQLLIYQMSNLASGVPDRFSSSGSGTDFTLRISRVEAEDVGVYYCAQNLELPTFGGGTKLEIK
notes: Mouse monoclonal antibody from a BALB/c x SP2/0 hybridoma; also called anti-HMMW-6 antibody
Take B2: the “ELISA reading at antibody dilution 1:100K” value in assay [1] is 2.16. Also, in assay [2], the titer is ≥ 100000 dilution (1:x). In assay [3], the “ELISA reading at antibody dilution 1:25K” value came to 2.55. In addition, the “ELISA reading at antibody dilution 1:50K” value in assay [4] is 2.2. For the same molecule, in assay [5], the “ELISA reading at antibody dilution 1:6.25K” value turned out to be 3.19. The “ELISA reading at antibody dilution 1:3.125K” value in assay [6] was 3.37. Moreover, the “ELISA reading at antibody dilution 1:12.5K” value in assay [7] was found to be 2.96.

B3: Anti-HMMW antibody-3 (antibody, V domains shown)
VH: EVKLEESGGGLVQPGGSMKLSCVASGFTFSDYWMNWVRQSPEKGLEWLTEIRLKSDNYATHYAESVKGKFTISRDDSKSTVYLQMNNLRAEDTGIYYCSVETMDFWGQGTSVTVSS
VL: QAVVTQESALTTSPGETVTLTCRSSIGAVTTNNYANWVQEKPDRLFTGLIRGTNNRVPGVPARFSGSLIGDKAALTITGAQTEDEAIYFCALWYSNHWVFGGGTKLTVL
notes: Mouse monoclonal antibody from a BALB/c x SP2/0 hybridoma; also called anti-HMMW-3 antibody
Regarding B3, the “ELISA reading at antibody dilution 1:100K” value in assay [1] amounted to 2.54. Besides, the titer in assay [2] was ≥ 100000 dilution (1:x). Further, the “ELISA reading at antibody dilution 1:25K” value in assay [3] amounted to 3.04. For the same molecule, in assay [4], the “ELISA reading at antibody dilution 1:50K” value was determined as 2.92. Also, the “ELISA reading at antibody dilution 1:6.25K” value in assay [5] came to 3.4. Also, the “ELISA reading at antibody dilution 1:3.125K” value in assay [6] turned out to be 3.57. In addition, the “ELISA reading at antibody dilution 1:12.5K” value in assay [7] came to 3.22.

B4: Anti-HMMW antibody-4 (antibody, V domains shown)
VH: EVKLEESGGGLVQPGGSMKLSCVASGFTFSDYWMNWVRQSPEKGLEWLTEIRLKSNNYLTHYAESVKGRFTISRDDSKSSVYLQMNNLRAEDTGIYYCSVETMDYWGQGISVTVSS
VL: QAVVTQESALTTSSGETVTLTCRSSTGAVTTSNYANWVQEKPDHLFTGLIRGTNNRAPGVPARFSGSLIGDKAALTITGAQTEDEAIYFCALWYSNHWVFGGGTKLTVL
notes: Mouse monoclonal antibody from a BALB/c x SP2/0 hybridoma; also called anti-HMMW-4 antibody
For the molecule B4, the “ELISA reading at antibody dilution 1:100K” value in assay [1] turned out to be 2.57. Also, the titer in assay [2] was ≥ 100000 dilution (1:x). The “ELISA reading at antibody dilution 1:25K” value in assay [3] was 3.13. For the same molecule, in assay [4], the “ELISA reading at antibody dilution 1:50K” value was 2.81. For the same molecule, in assay [5], the “ELISA reading at antibody dilution 1:6.25K” value was found to be 3.45. Moreover, the “ELISA reading at antibody dilution 1:3.125K” value in assay [6] is 3.52. Besides, in assay [7], the “ELISA reading at antibody dilution 1:12.5K” value was determined as 3.35.

B5: Anti-HMMW antibody-1 (antibody, V domains shown)
VH: EVKLEESGGGLVQPGGSMKFSCVASGFTFSNYWMNWVRQSPERGLEWVAEIKLKSNNYATLYAESVKGRFTISRDDSKSSVYLQVNNLRAEDTGIYYCITEIFDYWGQGTTLTVSS
VL: QAVVTQESALTTSPGETVTLTCRSSTGAVTTSNYATWVQEKPDHLFTGLIVGANNRAPGVPARFSGSLIGDKAALTITGAQTEDEAIYFCALWFLNHWVFGGGTKLTVLG
notes: Mouse monoclonal antibody from a BALB/c x SP2/0 hybridoma; also called anti-HMMW-1 antibody
Regarding B5, in assay [1], the “ELISA reading at antibody dilution 1:100K” value is 1.14. Besides, in assay [2], the titer is ≥ 100000 dilution (1:x). Moreover, the “ELISA reading at antibody dilution 1:25K” value in assay [3] was 2.13. Further, in assay [4], the “ELISA reading at antibody dilution 1:50K” value is 1.85. Besides, in assay [5], the “ELISA reading at antibody dilution 1:6.25K” value was determined as 2.59. Besides, in assay [6], the “ELISA reading at antibody dilution 1:3.125K” value worked out at 2.85. In assay [7], the “ELISA reading at antibody dilution 1:12.5K” value was 2.38.

B6: Anti-HMMW antibody-8 (antibody, V domains shown)
VH: EVKLEESGGGLVQPGGSMKVSCVASGFTFSNYWMNWVRQSPEKGLEWVAEIKLKSDIDATNYAESVKGRFTISRDDSKSSVSLQMNNLRAEDTGIYYCSTEIFDYWGQGTTLTVSS
VL: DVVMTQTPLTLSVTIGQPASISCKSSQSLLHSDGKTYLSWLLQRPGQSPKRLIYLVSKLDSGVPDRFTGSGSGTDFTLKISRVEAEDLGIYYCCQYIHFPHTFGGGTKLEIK
notes: Mouse monoclonal antibody from a BALB/c x SP2/0 hybridoma; also called anti-HMMW-8 antibody
Consider B6, for which the “ELISA reading at antibody dilution 1:100K” value in assay [1] was 2.79. Moreover, in assay [2], the titer was ≥ 100000 dilution (1:x). Moreover, in assay [3], the “ELISA reading at antibody dilution 1:25K” value turned out to be 2.97. Besides, in assay [4], the “ELISA reading at antibody dilution 1:50K” value was found to be 2.96. The “ELISA reading at antibody dilution 1:6.25K” value in assay [5] came out at 3.16. Moreover, the “ELISA reading at antibody dilution 1:3.125K” value in assay [6] was 3.45. In assay [7], the “ELISA reading at antibody dilution 1:12.5K” value turned out to be 3.11.

B7: Anti-HMMW antibody-7 (antibody, V domains shown)
VH: EVKLEESGGGLVQPGGSKKLSCFASGFTFSNYWMNWVRQSPEKGLEWVAEIQLKSNNYATHYAESVKGRFTISRDDSKSSVYLQMNNLRAEDTGIYYCTTEIFDFWGQGTTLTVSS
VL: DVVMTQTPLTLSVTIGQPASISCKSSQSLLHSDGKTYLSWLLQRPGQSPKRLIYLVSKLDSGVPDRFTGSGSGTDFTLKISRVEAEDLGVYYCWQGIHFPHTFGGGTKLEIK
notes: Mouse monoclonal antibody from a BALB/c x SP2/0 hybridoma; also called anti-HMMW-7 antibody
For the molecule B7, the “ELISA reading at antibody dilution 1:100K” value in assay [1] turned out to be 1.7. In addition, in assay [2], the titer is ≥ 100000 dilution (1:x). In addition, the “ELISA reading at antibody dilution 1:25K” value in assay [3] worked out at 2.15. Besides, in assay [4], the “ELISA reading at antibody dilution 1:50K” value was 2.14. Also, the “ELISA reading at antibody dilution 1:6.25K” value in assay [5] was 2.26. Also, the “ELISA reading at antibody dilution 1:3.125K” value in assay [6] came to 2.4. Besides, the “ELISA reading at antibody dilution 1:12.5K” value in assay [7] was found to be 2.27.

B8: Anti-HMMW antibody-5 (antibody, V domains shown)
VH: EVKLEESGGGLVQPGGSMKLSCVVSGFTFSNYWMNWVRQSPERGLEWVAEIKLKSNNYATLYAASVKGRFTISRDDSKSSVYLQVNNLRTEDTGIYYCITEIFDYWGQGTTLTVSS
VL: QTVVTQESALTTSPGETVTLTCRSSTGSVTTSNYATWVQEKPDHLFTGLIVGANNRAPGVPARFSGSLIGDKAALTITGAQTEDEAIYFCALWFIDHWVFGGGTKLTVL
notes: Mouse monoclonal antibody from a BALB/c x SP2/0 hybridoma; also called anti-HMMW-5 antibody
On to B8, for which the “ELISA reading at antibody dilution 1:100K” value in assay [1] was 2. In assay [2], the titer was ≥ 100000 dilution (1:x). The “ELISA reading at antibody dilution 1:25K” value in assay [3] came to 2.48. For the same molecule, the “ELISA reading at antibody dilution 1:50K” value in assay [4] stood at 2.31. In addition, the “ELISA reading at antibody dilution 1:6.25K” value in assay [5] worked out at 2.81. Further, the “ELISA reading at antibody dilution 1:3.125K” value in assay [6] stood at 2.92. Also, in assay [7], the “ELISA reading at antibody dilution 1:12.5K” value was 2.56.
